Experimental data from US6641994B2, “Methods of identifying anti-viral agents” (Pharmacia & Upjohn Company, priority 1999, dated 2003).

B1: GST-16E7: HPV16 E7 protein expressed as a glutathione-S-transferase (GST) fusion protein (protein)
chain: MHGDTPTLHEYMLDLQPETTDLYCYEQLNDSSEEEDEIDGPAGQAEPDRAHYNIVTFCCKCDSTLRLCVQSTHVDIRTLEDLLMGTLGIVCPICSQKP
modifications: left off: a dimerising Fc or GST

Key:
cyclin A/CDK2 = molecular target: T1, cyclin A/CDK2 (Homo sapiens, UniProt P20248+P24941); format: biochemical
T1 construct: hemagglutinin (HA); made in house; host or cells: Sf9 or High Five insect cells, baculovirus co-infection
T1 sequence (P20248 whole entry, one chain of several): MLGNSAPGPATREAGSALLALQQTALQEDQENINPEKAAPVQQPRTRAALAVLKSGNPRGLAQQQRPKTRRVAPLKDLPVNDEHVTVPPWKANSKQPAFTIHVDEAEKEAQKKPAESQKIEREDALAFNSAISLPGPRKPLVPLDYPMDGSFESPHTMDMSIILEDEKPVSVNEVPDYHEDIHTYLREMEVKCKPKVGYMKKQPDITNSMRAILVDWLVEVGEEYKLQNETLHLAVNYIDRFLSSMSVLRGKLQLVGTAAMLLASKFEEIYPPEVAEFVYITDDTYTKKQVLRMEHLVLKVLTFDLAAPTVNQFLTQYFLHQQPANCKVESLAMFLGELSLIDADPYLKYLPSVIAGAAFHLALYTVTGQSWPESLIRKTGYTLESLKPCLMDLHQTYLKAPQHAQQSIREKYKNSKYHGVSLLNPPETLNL

CDK2 [1] = molecular target: T2, CDK2 (Homo sapiens, UniProt P20248+P24941); format: biochemical
T2 construct: hemagglutinin (HA); made in house; host or cells: Sf9 or High Five insect cells, baculovirus co-infection
T2 sequence (P20248 whole entry, one chain of several): as above

CDK2 [2] = assay: Effect of E7 on p21/p27 inhibition of CDK2 kinase activity; format: biochemical
Procedure: Histone H1 was chosen as the substrate in the kinase assays since pRb, a physiological CDK2 substrate, is known to bind E7 and could interfere with the assay.
For some assays, HEK293 cell lysate (100 μg total protein, prepared as described above) was preincubated with purified GST-31E7 protein in PBS in the presence of p13 agarose beads (Calbiochem) at 4° C. for one hour, and subsequently incubated with purified His-p27 for 30 min at 4° C. Preincubation was carried out to permit protein complex formation, while p13 agarose beads bind cyclin-dependent kinase complexes to facilitate purification [Dreatta, et al., Cell 56:829-838 (1989)]. After collection and washing four times with PBS, the beads were washed two additional times with KIP buffer containing 50 mM Tris-Cl, pH 7.5, 10 mM MgCl2, 5 mM EGTA, 2 mM DTT, and 10 μM ATP. […] Phosphorylated proteins were analyzed by SDS-PAGE followed by autoradiography and PhosphorImager® analysis.
In other assays, purified cyclin A- or cyclin E-complexed CDK2 was included. […] Kinase activity was measured following addition of 1 μl of 2 mCi/ml [γ-^32P] […] The reaction was stopped by adding SDS sample buffer, and phosphorylated proteins were analyzed by SDS-PAGE followed by autoradiography and PhosphorImager® analysis.

GST-cyclinA = molecular target: T3, GST-cyclinA (Homo sapiens, UniProt P20248); format: binding; details: purified HPV16E7 4 μg; SDS-PAGE and immunoblotting
T3 construct: made in house; host or cells: High Five insect cells, baculovirus
T3 sequence (P20248 whole entry): as the sequence (P20248 whole entry, one chain of several) above

HA-CDK2 = molecular target: T4, HA-CDK2 (Homo sapiens, UniProt P24941); format: binding
T4 construct: made in house; host or cells: High Five insect cells, baculovirus

cyclin E/CDK2 = molecular target: T5, cyclin E/CDK2 (Homo sapiens, UniProt P24941); format: biochemical
T5 construct: hemagglutinin (HA); made in house; host or cells: Sf9 or High Five insect cells, baculovirus co-infection

CDK5 complexed with p25 = CDK5 complexed with p25 (Homo sapiens, UniProt Q00535); assay: Kinase assay CDK5/p25, histone H1 phosphorylation; format: biochemical; details: over controls
Sequence of CDK5 complexed with p25 (Q00535 whole entry): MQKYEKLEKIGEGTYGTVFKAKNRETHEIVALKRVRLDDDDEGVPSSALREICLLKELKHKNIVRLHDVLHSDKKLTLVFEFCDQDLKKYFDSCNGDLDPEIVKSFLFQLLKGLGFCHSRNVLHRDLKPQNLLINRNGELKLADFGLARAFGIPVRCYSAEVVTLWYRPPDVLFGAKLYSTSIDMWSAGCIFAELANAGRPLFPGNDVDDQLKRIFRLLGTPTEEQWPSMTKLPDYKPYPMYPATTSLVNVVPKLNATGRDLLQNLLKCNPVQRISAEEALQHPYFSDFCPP
Sequence of CDK5 complexed with p25 (Q15078 99-307 partner limits assumed): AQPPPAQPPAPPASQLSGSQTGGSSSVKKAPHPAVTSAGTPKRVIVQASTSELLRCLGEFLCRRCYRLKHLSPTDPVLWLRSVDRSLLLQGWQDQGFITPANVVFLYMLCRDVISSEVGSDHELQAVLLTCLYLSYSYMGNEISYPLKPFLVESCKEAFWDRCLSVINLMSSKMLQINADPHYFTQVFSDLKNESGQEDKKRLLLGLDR

MAP kinase 1 = assay: Kinase assay MAP kinase 1; format: biochemical
Procedure: (§1) In an attempt to determine if the E7 effects on kinase activity were specific for members of the cyclin-dependent kinase family, various kinase/substrate combinations were examined for enhanced activity in the presence of E7.
(§2) When HPV16-E7 was added to either cyclinA/CDK2 or cyclinE/CDK2 using histoneH1 as the substrate, a large increase (26-fold and 13-fold) over controls was noted as described above. When the retinoblastoma (pRb) protein was used as a substrate for cyclinE/CDK2 a 1.9-fold increase over background was noted.

CDC2/cyclinB = CDC2/cyclinB (Homo sapiens, UniProt P06493); assay: Kinase assay CDC2/cyclinB; format: biochemical
Sequence of CDC2/cyclinB (P06493 whole entry, species assumed): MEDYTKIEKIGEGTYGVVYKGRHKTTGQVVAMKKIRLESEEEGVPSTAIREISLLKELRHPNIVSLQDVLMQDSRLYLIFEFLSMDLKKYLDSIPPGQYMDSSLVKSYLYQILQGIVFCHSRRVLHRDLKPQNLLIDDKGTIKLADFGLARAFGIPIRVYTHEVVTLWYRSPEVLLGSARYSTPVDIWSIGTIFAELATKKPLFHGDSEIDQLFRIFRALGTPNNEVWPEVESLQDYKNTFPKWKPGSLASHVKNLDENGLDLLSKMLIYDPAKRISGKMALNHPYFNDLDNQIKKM
Sequence of CDC2/cyclinB (P14635 whole entry partner, species assumed): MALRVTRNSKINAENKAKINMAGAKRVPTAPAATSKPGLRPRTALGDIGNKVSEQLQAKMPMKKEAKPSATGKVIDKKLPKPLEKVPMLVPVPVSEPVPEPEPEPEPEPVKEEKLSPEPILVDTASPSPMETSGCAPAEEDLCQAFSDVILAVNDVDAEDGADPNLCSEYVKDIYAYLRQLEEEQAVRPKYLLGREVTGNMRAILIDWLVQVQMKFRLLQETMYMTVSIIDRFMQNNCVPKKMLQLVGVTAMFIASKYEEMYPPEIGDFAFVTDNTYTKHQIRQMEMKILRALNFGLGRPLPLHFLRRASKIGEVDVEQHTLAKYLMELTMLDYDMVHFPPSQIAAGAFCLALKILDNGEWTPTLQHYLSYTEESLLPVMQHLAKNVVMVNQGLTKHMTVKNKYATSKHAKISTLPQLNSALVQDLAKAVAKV
Procedure: as §1, §2

Row | Molecule | phosphorylation of HPV E2 by CDK2/cyclinA (cyclin A/CDK2) | peak stimulatory activity (concentration) (CDK2 [1]) | EC50 (CDK2 [1]; read-out: 50% stimulatory concentration of E7) [nM] | effect on p21- and p27-dependent inhibition of cyclin E/CDK2 activity (CDK2 [2]; histone H1 substrate) | effect on p27 inhibition of CDK2 activity (CDK2 [2]; purified cyclin E/CDK2 and cyclin A/CDK2, solution kinase assay) | binding to beads containing GST-cyclinA (GST-cyclinA) | binding to beads with immobilized HA-CDK2 (HA-CDK2) | effect on cyclin A/CDK2 histone H1 kinase activity (cyclin A/CDK2) | Km (cyclin A/CDK2; read-out: Km for histone H1) [µM] | increase in cyclinE/CDK2 kinase activity (cyclin E/CDK2) [fold] | increase in pRb kinase activity (cyclin E/CDK2) [fold] | stimulation of cyclin E/CDK2 phosphorylation of MBP-HPV 18 E1 fusion protein (cyclin E/CDK2) [fold] | increase in H1 phosphorylation by CDK5 complexed with p25 (CDK5 complexed with p25) [fold] | MAP kinase 1 activity (MAP kinase 1) | CDC2/cyclinB activity (CDC2/cyclinB)
1 | E7: HPV E7 protein or GST-E7 fusion, strain not named at the place; b203 used purified HPV16E7 | enhanced | approximately 0.29 μM | ~180 | little or no effect | little or no effect | binding | no binding |  |  |  |  |  |  |  | 
2 | B1 |  |  |  |  |  |  |  | significant effect | 1.1 | 13 | 1.9 | 2.3 | 4.5 | unaffected | unaffected
